Publication doi:10.1101/2025.02.13.638205 (2025)

B1: nanobody W2812 (VHH)
VHH: QVQLQESGGGLVQPGGSLRLSCAASGRTFSSYMMAWFRQSQGNERELVAGLTRSGVSAYYADSVKGRFTISRDNAKNTVYLQMNSLKPKDTAVYYCAAASTTYINHIYTNPSNYPHWGPGTQVTVSS
B2: recombinant Pfs230 D13D14 (K2828-E3111) (domain or fragment)
chain: KTIGKDICKYDVTTKVATCEIIDTIDSSVLKEHHTVHYSITLSRWDKLIIKYPTNEKTHFENFFVNPFNLKDKVLYNYNKPINIEHILPGAITTDIYDTRTKIKQYILRIPPYVHKDIHFSLEFNNSLSLTKQNQNIIYGNVAKIFIHINQGYKEIHGCDFTGKYSHLFTYSKKPLPNDDDICNVTIGNNTFSGFACLSHFELKPNNCFSSVYDYNEANKVKKLFDLSTKVELDHIKQNTSGYTLSYIIFNKESTKLKFSCTCSSNYSNYTIRITFDPNYIIPE
B3: nanobody W2810 (VHH)
VHH: QVQLQESGGGLVQAGGSLRLSCAASGRTFSSYAMGWFHQAPGKEREFVASISWSGGSIRYADSVKGRFTVSRDNAKNTAYLQMNSLKPEDTGVYYCAAGPYSSDYGGFGSWGQGTQVTVSS

Key:
[1] = biological target: B2; test: BLI
[2] = biological target: W2811; test: BLI

| Binder | Kd [1] | Kd [2] |
| --- | --- | --- |
| B1 | 1.55 nM | – |
| B2 | – | 5.12 nM |
| B3 | 4.8 nM | – |
